These results are taken from patent US20250188153A1.

B1: MPV467 Fab (Fab, V domains shown)
VH: EVQLVESGGGVVRPGTSLRVSCAAFDFNFRDYGMHWVRQAPGKGLEWVAGIWYDGSNKDYADSVKGRFTISRDNSQNTLYLQMNSLRVEDTAVYYCARDPRTHREGALSHFDSWGQGTLVTVSS
VL: PNELTQDPAVSVALGQTVRITCQGDSLRNYFAGWYQQKPGQAPLLVLYGENIRPSGIPDRFSGSSSGNTVSLTITGAQAEDEADYYCNSRDNSGNHWVFGGGTRLTVL
B2: MPV485 (antibody, V domains shown)
V domain 1: EVQLQEPGPGLVKPSETLSLTCTVSGGSISSTNSFWGWVRQPPGKGLEWIGSIYYSGTTYYNSSLKSRVTISVDTSKNQFSLRLSSVTAADTAVYYCARQGLTSSWYDGSGLDVWG
V domain 2: SYELTQPPSVSVSPGQTASITCSGDKLGNKYACWYQQRPGQSPVLVIYQDTKRPSGIPERFSGSNSGNTATLTISGTQAMDEADYYCQAWDSNTVVFGGGTKLTVL
B3: MPV464 (antibody, V domains shown)
VH: QVQLQESGPGLVKPSQTLSLTCTVSGGSVRGGGDYWSWIRRPPGKGLEWIGHIYNSGTTFYNPSLKSRVTISIDTSKNQFSLKLRSVTAADTAVYYCGRVGSRATGLPDWIDPWGQGTLVTVSS
VL: SYELTQPPSVSVSPGQTATITCSGTNLGAKYSCWYQQKPGQSPVLVIFQDNKRASGIPARFSASTSGDTATLTISGTQVMDEADYFCQAWDSRTAVFGGGTTLTVL
B4: MPV477 (antibody, V domains shown)
VH: EVQLVQSGAEVKKPGASVEVSCKTSGYTFTDYYLHWVRQAPGQGLEWMGWINPRSGGTKYGQKFQGRVTMTRDTSISTAYMDLRGLRSDDTAVYYCARAPLLTVYAVAHRSGENRFDPWGQGTVTVSS
VL: QPPSLSGAPGQTVTISCTGSGSNIGAGYDVNWYQCLPGTAPKLLMFDNSNRPSGVPDRFSGSRSGASASLAITGLQAEDEADYYCQSYDSGLSGWVFGGGTKLTVL
B5: MPV483 (antibody, V domains shown)
VH: EVQLVQSGAELKKPGSSVKVSCKASGDTFSNYAISWVRQAPGQGLEWMGGIIPIYNTANYAQKFQGRVTLTADESTSTAYMELSSLRSEDTAVYYCARDVRNNWSVLRGARYYYYGMDVWGQGTTVTVSS
VL: DIVMTQTPFSLSASVGDRVTVTCRASQDISNSLAWFQQKPGKAPKSLIYAASSLQSGVPTRFSGGGSGTDFTLTISSLQPEDFATFYCLQYDSFPPTFGGGTKVEI
B6: MPV486 (antibody, V domains shown)
VH: EVQLVESGGHLVQSGGSLRLSCAASGFTFSNYILNWVRQAPGKGLEWISYITGGSSAIYYADSVKGRFTISRDDAKNSLYLQMNNLRAEDTAVYYCARSHGYDSSGYYYYFAMDVWGQGTTVTVSS
VL: QSVLTQPPSASGTPGQRVTISCSGSNSNIESNTVNWYQQIPGTAPKLLIYSDNRRPSGVPDRFSGSKSGTSASLAISGLQSEDEADYYCAAWDDSLIGYVFGTGTKVTV
B7: MPV454 (antibody, V domains shown)
VH: EVQLVESGGGLVKPGGSLRLSCSTSGFVFSSYAMHWVRQAPGKGLEHVSAISSTGDNTHYADSVKGRFTISRDNSRGRLYLQMTSVRPEDAALYYCVKDLYSGRFYYFLDDWGQGTRIIVSS
VL: DIQVTQSPSSLSASVGDRVTISCRASQNISNYLNWFQQRPGKAPKLLIYVASTLQSGAPSRFSGSGSGTDFTLTITDLQPEDFATYYCQQSYNTPPITFGQGTRLEIK
B8: MPV478 (antibody, V domains shown)
VH: EVQLVQSGAEVKKPGASVKVSCNASGYTFTGYYIHWVRQAPGQGLEWMGWINPRSGGTNYAQKFQGRVTLTRDTSITTAYMDVTRLRPDDTAVYYCATTREGIVLMPRGRGDDALDTWGQGTTVIVSS
VL: DIVMTQSPVSLTVSLGERATINCKSSQSVLSTSNNENYLAWYQQKPGQPPNLLIYWASTRESGVPDRFSGSGSGTDFTLTISSLQAEDVAVYYCQQYFATPITFGPGTKVDVK
B9: MPE8 (antibody, V domains shown)
VH: EVQLVESGGGLVKPGGSLRLSCAASGFTFSSYSMNWVRQAPGKGLEWVSSISASSSYSDYADSAKGRFTISRDNAKTSLFLQMNSLRAEDTAIYFCARARATGYSSITPYFDIWGQGTLVTVSS
VL: QSVVTQPPSVSGAPGQRVTISCTGSSSNIGAGYDVHWYQQLPGTAPKLLIYDNNNRPSGVPDRFSASKSGTSASLAITGLQAEDEADYYCQSYDRSLSGVFGTGTKVTVL

The target in the first assay is DS-CavEs2-IPDS (human metapneumovirus). Put plainly: cryo-EM structure.
Regarding B1, the buried surface area on hMPV F (heavy chain) came out at 567 Å^2 and the buried surface area on hMPV F (light chain) is 322 Å^2.

Another assay concerns the target hMPV A1 F (human metapneumovirus). Put plainly: ELISA on coated recombinant protein, OD 405 nm. Background: In an ELISA, binding on a coated surface is turned into a signal by an enzyme label.
Regarding B2, the EC50 (usually the concentration that produces a half-maximal response) stood at 0.11 µg/mL.

B3: the EC50 worked out at 0.28 µg/mL.

In the case of B4, the EC50 was 0.083 µg/mL.

Consider B5, for which the EC50 came out at 0.12 µg/mL.

In the case of B6, the EC50 was 0.053 µg/mL.

For B7, the EC50 came out at 0.49 µg/mL.

On to B8, for which the concentration for a half-maximal effect (EC50) is 0.059 µg/mL.

Another assay deals with hMPV A1 F monomer (human metapneumovirus). Kind of assay: ELISA on coated recombinant protein, OD 405 nm.
For B2, the EC50 worked out at 0.24 µg/mL.

For the molecule B3, the concentration for a half-maximal effect (EC50) was 0.067 µg/mL.

Take B4: the concentration for a half-maximal effect (EC50) worked out at 0.049 µg/mL.

As to B5, the EC50 was determined as 0.16 µg/mL.

For the molecule B6, the EC50 was 0.088 µg/mL.

As to B7, the EC50 turned out to be 0.052 µg/mL.

With B8, the concentration for a half-maximal effect (EC50) was 0.012 µg/mL.

For a further assay, the target named is hMPV A1 F trimer (heated) (human metapneumovirus). Put plainly: ELISA on coated recombinant protein, OD 405 nm.
On to B2, for which the half-maximal effective concentration (EC50) amounted to 0.32 µg/mL.

With B3, the EC50 was found to be 0.24 µg/mL.

For B4, the EC50 worked out at 0.087 µg/mL.

Take B5: the 50% effective concentration (EC50) turned out to be 0.27 µg/mL.

For B6, the EC50 stood at 0.22 µg/mL.

B7: the half-maximal effective concentration (EC50) came to 0.14 µg/mL.

As to B8, the concentration for a half-maximal effect (EC50) stood at 0.024 µg/mL.

A further assay has as its target hMPV A2 F (human metapneumovirus). Kind of assay: ELISA on coated recombinant protein, OD 405 nm.
B2: the 50% effective concentration (EC50) worked out at 0.086 µg/mL.

As to B3, the half-maximal effective concentration (EC50) turned out to be 0.083 µg/mL.

On to B4, for which the EC50 was 0.023 µg/mL.

On to B5, for which the half-maximal effective concentration (EC50) worked out at 0.07 µg/mL.

In the case of B6, the EC50 amounted to 0.043 µg/mL.

Regarding B7, the EC50 was 0.12 µg/mL.

As to B8, the EC50 was 0.021 µg/mL.

Another assay deals with hMPV B1 F (human metapneumovirus). Put plainly: ELISA on coated recombinant protein, OD 405 nm.
Regarding B2, the EC50 came to 0.078 µg/mL.

For the molecule B3, the EC50 amounted to 0.086 µg/mL.

As to B4, the EC50 stood at 0.02 µg/mL.

For B5, the EC50 is 0.12 µg/mL.

Regarding B6, the EC50 was 0.1 µg/mL.

Turning to B7, the EC50 amounted to 0.12 µg/mL.

Consider B8, for which the concentration giving a half-maximal response (EC50) is 0.022 µg/mL.

The target in a further assay is hMPV B2 F GCN4 (human metapneumovirus). Kind of assay: ELISA on coated recombinant protein, OD 405 nm.
B2: the half-maximal effective concentration (EC50) turned out to be 0.16 µg/mL.

In the case of B3, the EC50 turned out to be 0.12 µg/mL.

On to B4, for which the EC50 was found to be 0.037 µg/mL.

Turning to B5, the EC50 is 0.14 µg/mL.

Take B6: the 50% effective concentration (EC50) is 0.1 µg/mL.

As to B7, the EC50 is 0.068 µg/mL.

For the molecule B8, the EC50 stood at 0.02 µg/mL.

Another assay concerns the target hMPV B2 F monomer (human metapneumovirus). Kind of assay: ELISA on coated recombinant protein, OD 405 nm.
B2: the EC50 worked out at 0.18 µg/mL.

In the case of B3, the EC50 stood at 0.098 µg/mL.

On to B4, for which the EC50 came to 0.21 µg/mL.

With B5, the concentration for a half-maximal effect (EC50) was found to be 0.13 µg/mL.

Consider B6, for which the EC50 was found to be 0.11 µg/mL.

With B7, the EC50 was 0.046 µg/mL.

For B8, the concentration giving a half-maximal response (EC50) turned out to be 0.02 µg/mL.

The target of a further assay is hMPV B2 F protein (his-tagged, not trypsin treated) (human metapneumovirus). Put plainly: ELISA on coated recombinant protein, OD 405 nm.
For B2, the 50% effective concentration (EC50) amounted to 0.18 µg/mL.

Turning to B3, the EC50 stood at 0.98 µg/mL.

For B4, the EC50 turned out to be 0.063 µg/mL.

Take B5: the EC50 amounted to 0.22 µg/mL.

With B6, the concentration for a half-maximal effect (EC50) was determined as 0.23 µg/mL.

Take B7: the EC50 stood at 5.2 µg/mL.

Take B8: the EC50 came out at 0.027 µg/mL.

Another assay concerns the target hMPV B2 F trimer (heated) (human metapneumovirus). Put plainly: ELISA on coated recombinant protein, OD 405 nm.
As to B2, the EC50 was 0.36 µg/mL.

B3: the half-maximal effective concentration (EC50) worked out at 0.29 µg/mL.

With B4, the EC50 is 0.063 µg/mL.

In the case of B5, the concentration for a half-maximal effect (EC50) worked out at 0.33 µg/mL.

For B6, the concentration for a half-maximal effect (EC50) was determined as 0.24 µg/mL.

Consider B7, for which the concentration giving a half-maximal response (EC50) was found to be 0.15 µg/mL.

B8: the EC50 amounted to 0.02 µg/mL.

In the next assay the target is hMPV B2 F protein (his-tagged, not trypsin treated) (human metapneumovirus). Kind of assay: BLI epitope binning on hMPV B2 F; first mAb MPV314, second mAb MPE8.
As for B9, the % binding of the second mAb after the first mAb turned out to be 4%.

The target is the same in a further assay. Kind of assay: BLI epitope binning on hMPV B2 F; first mAb MPV414, second mAb MPE8.
As for B9, the % binding of the second mAb after the first mAb is 2%.

For another assay the target is unchanged. Put plainly: BLI epitope binning on hMPV B2 F; first mAb MPV477, second mAb MPE8.
B9: the % binding of the second mAb after the first mAb came out at 1%.

Another assay shares this target. Put plainly: BLI epitope binning on hMPV B2 F; first mAb MPV481, second mAb MPE8.
In the case of B9, the % binding of the second mAb after the first mAb is 72%.

Another assay has the same target. Put plainly: BLI epitope binning on hMPV B2 F; first mAb MPV483, second mAb MPE8.
As to B9, the % binding of the second mAb after the first mAb turned out to be 71%.

For another assay the target is unchanged. Put plainly: BLI epitope binning on hMPV B2 F; first mAb MPV487, second mAb MPE8.
B9: the % binding of the second mAb after the first mAb was 4%.

Another assay shares this target. Kind of assay: BLI epitope binning on hMPV B2 F; first mAb MPV488, second mAb MPE8.
Regarding B9, the % binding of the second mAb after the first mAb is 42%.

The target is the same in the next assay. Kind of assay: BLI epitope binning on hMPV B2 F; first mAb MPV503, second mAb MPE8.
With B9, the % binding of the second mAb after the first mAb was -1%.
